6 proteins from patent publication US20180346600 can be followed below.

Assay in all cases: HEK293-F co-expression, Protein A purification, non-reducing SDS-PAGE densitometry
For data set [1], the target named is FcCH3B, A205 (E357N/K370R).
Another data set has as its target FcCH3B, A241 (E357N).
The target in data set [2] is T1, FcCH3B, B240 (D399G/K392G/K409M).
T1 chain: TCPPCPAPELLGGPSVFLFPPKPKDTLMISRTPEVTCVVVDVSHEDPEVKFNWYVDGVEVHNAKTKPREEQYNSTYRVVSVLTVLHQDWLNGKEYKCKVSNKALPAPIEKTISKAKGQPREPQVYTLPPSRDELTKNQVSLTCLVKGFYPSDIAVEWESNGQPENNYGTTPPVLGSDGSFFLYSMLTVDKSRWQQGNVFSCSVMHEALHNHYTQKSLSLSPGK

In data set [3] the target is FcCH3B, A210 (E357N/K370H).
Data set [4] has as its target T2, FcCH3B, B215 (D399W/K392G/K409M).
T2 chain: T1 chain with G175W

The target of the next data set is FcCH3B, A216 (E357N).

Substitutions are numbered along the chain they refer to. In names and notes the source's numbering stands.

B1: scFv-FcCH3A, A205 (E357D/S364W/K370E) (protein)
chain: T1 chain with E133D, S140W, K146E, G168K, G175D, M185K
B1 gave a (scFv-Fc)(Fc) (heterodimer)(%) in data set [1] of 88.8%.

B2: scFv-FcCH3A, A241 (E357N/S364W/K370E) (protein)
chain: T1 chain with E133N, S140W, K146E, G168K, G175D, M185K
For the protein B2, the (scFv-Fc)(Fc) (heterodimer)(%) in the data set with FcCH3B, A241 (E357N) came out at 81%.

B3: scFv-FcCH3A, B240 (K392S/K409R/D399L) (protein)
chain: T1 chain with G168S, G175L, M185R
B3 yielded a (scFv-Fc)(Fc) (heterodimer)(%) in data set [2] of 83.3%.

B4: scFv-FcCH3A, A210 (E357A/S364Y/K370E) (protein)
chain: T1 chain with E133A, S140Y, K146E, G168K, G175D, M185K
For the protein B4, the (scFv-Fc)(Fc) (heterodimer)(%) in data set [3] amounted to 80.8%.

B5: scFv-FcCH3A, B215 (K392R/K409R/D399L) (protein)
chain: T1 chain with G168R, G175L, M185R
On to B5, for which the (scFv-Fc)(Fc) (heterodimer)(%) in data set [4] turned out to be 78.1%.

B6: scFv-FcCH3A, A216 (E357G/S364W/K370E) (protein)
chain: T1 chain with E133G, S140W, K146E, G168K, G175D, M185K
The protein B6 showed a (scFv-Fc)(Fc) (heterodimer)(%) with FcCH3B, A216 (E357N) of 80.3%.
